The values that follow come from patent US20230383269A1 (DSM AUSTRIA, published 2023).

This data set concerns the molecule itself. The data set can be described thus: Blue-Native-PAGE, oligomeric conformation (self-association of identical chains). The text has this: Comparison of the native molecular weight (oligomeric conformation) between single purified zearalenone-cleaving polypeptides was done via Blue-Native-PAGE. Dilutions of the elutes were supplied with not denaturating loading dye (e.g. 2× loading dye: 0.126 M tris(hydroxymethyl)aminomethan/hydrochloric acid pH 6.8, 20.0% glycerol, 4.0% Coomassie Blue G-250) and separated on a 4-15% polyacrylamid gel under native conditions (e.g. Mini-PROTEAN® Tetra Cell System, 1658004EDU+4-15% Mini-PROTEAN® TGX™ Precast Protein Gels, 4561083EDU, Bio-Rad Laboratories GmbH) (5× Anode Buffer: 0.125 M Tris(hydroxymethyl)aminomethane, 0.960 M Glycine, 1× Kathode Buffer: Anode Buffer+0.02% Coomassie Blue G250; 200 V, 40 minutes). The peptide bands were visualized by Coomassie staining. The oligomeric state of selected zearalenone-cleaving polypeptides was determined by size exclusion chromatography, SEC-MALS or X-Ray crystallography. Homo-dimers (e.g. SEQ ID NO. 1) migrated faster across the BN-PAGE gel matrix, while homo-tetramers (e.g. SEQ ID NO. 2-35) were retained in the gel matrix to a higher extent. The oligomeric conformation of the zearalenone-cleaving polypeptides was determined relatively to the migration of homo-dimeric and homo-tetrameric peptides.

B1: parent alpha/beta hydrolase of SEQ ID NO: 1 (enzyme)
chain: MTDQSPETRDIFVPHAFEEQQVDLGEVVMNYVEAGSADHPALLLLPEQTGSWWSYEPVIGLLAESFHVFAVDIRGQGRSTWTPKRYSLDNFGNDLVRFISLVVKRPVIVSGNSSGGVLAAWLSAYAMPGQIRAALCEDTPFFASELVPAHGHSVRQAAGPAFELYRNFLGDQWSVADWDGFAAAAKASPSKIMSLFPSSDEPPQNLKEYDPEWARAFFEGTVALHCPHDLMLSQVKTPILITHHARAVDPHSGDLLGALSDFQAERAQAIIESAGVPVEYASFPDALHMMHQFEPERFAEVLTSWVARLPADTPGAHHHHHH
notes: homo-dimer; also called wildtype parent alpha/beta hydrolase; zearalenone-cleaving polypeptide
As to B1, the binding result is on record as “binds”.
